According to the Human Domainome abundance scans (Beltran et al. 2025):
± gives the uncertainty stated by the source.

B1: POU domain, class 3, transcription factor 2, residues 356 to 411; numbered along this chain, P20265 (parent)
chain: KKRTSIEVSVKGALESHFLKCPKPSAQEITSLADSLQLEKEVVRVWFCNRRQKEKR

Variants of: B1
Assay: abundance fitness (aPCA) (normalised: wild type 0, dead -1); higher = more abundant; growth selection in yeast, the domain comes from the species named
Conditions: Homo sapiens

Q: With KKRTSIEVSVKGALESHFNKCPKPSAQEITSLADSLQLEKEVVRVWFCNRRQKEKR [L19N] as the variant, how does the abundance fitness read?
A: -0.075 ± 0.15

Q: For KKRTSIEVSVKGALESHFDKCPKPSAQEITSLADSLQLEKEVVRVWFCNRRQKEKR [L19D], which abundance fitness is on record?
A: -0.142 ± 0.17

Q: Which abundance fitness does the source give for KKRTSIEVSVKGALESHFPKCPKPSAQEITSLADSLQLEKEVVRVWFCNRRQKEKR [L19P] here?
A: -0.911 ± 0.17

Q: For KKRTSIEVSVKGALESHFSKCPKPSAQEITSLADSLQLEKEVVRVWFCNRRQKEKR [L19S], which abundance fitness is on record?
A: -0.03 ± 0.086

Q: With KKRTSIEVSVKGALESHFIKCPKPSAQEITSLADSLQLEKEVVRVWFCNRRQKEKR [L19I] as the variant, how does the abundance fitness read?
A: -0.113 ± 0.15

Q: With KKRTSIEVSVKGALESHFRKCPKPSAQEITSLADSLQLEKEVVRVWFCNRRQKEKR [L19R] as the variant, how does the abundance fitness read?
A: 0.006 ± 0.068

Q: Which abundance fitness does the source give for KKRTSIEVSVKGALESHFKKCPKPSAQEITSLADSLQLEKEVVRVWFCNRRQKEKR [L19K] here?
A: -0.162 ± 0.14

Q: With KKRTSIEVSVKGALESHFTKCPKPSAQEITSLADSLQLEKEVVRVWFCNRRQKEKR [L19T] as the variant, how does the abundance fitness read?
A: -0.183 ± 0.12

Q: For KKRTSIEVSVKGALESHFGKCPKPSAQEITSLADSLQLEKEVVRVWFCNRRQKEKR [L19G], which abundance fitness is on record?
A: -0.245 ± 0.076

Q: With KKRTSIEVSVKGALESHFFKCPKPSAQEITSLADSLQLEKEVVRVWFCNRRQKEKR [L19F] as the variant, how does the abundance fitness read?
A: -0.474 ± 0.13

Q: Which abundance fitness does the source give for KKRTSIEVSVKGALESHFEKCPKPSAQEITSLADSLQLEKEVVRVWFCNRRQKEKR [L19E] here?
A: -0.026 ± 0.095

Q: Which abundance fitness does the source give for KKRTSIEVSVKGALESHFYKCPKPSAQEITSLADSLQLEKEVVRVWFCNRRQKEKR [L19Y] here?
A: -0.248 ± 0.15

Q: For KKRTSIEVSVKGALESHFCKCPKPSAQEITSLADSLQLEKEVVRVWFCNRRQKEKR [L19C], which abundance fitness is on record?
A: -0.114 ± 0.13

Q: For KKRTSIEVSVKGALESHFMKCPKPSAQEITSLADSLQLEKEVVRVWFCNRRQKEKR [L19M], which abundance fitness is on record?
A: 0.007 ± 0.11

Q: For KKRTSIEVSVKGALESHFVKCPKPSAQEITSLADSLQLEKEVVRVWFCNRRQKEKR [L19V], which abundance fitness is on record?
A: -0.056 ± 0.075

Q: With KKRTSIEVSVKGALESHFLKKPKPSAQEITSLADSLQLEKEVVRVWFCNRRQKEKR [C21K] as the variant, how does the abundance fitness read?
A: -0.478 ± 0.19

Q: With KKRTSIEVSVKGALESHFLKVPKPSAQEITSLADSLQLEKEVVRVWFCNRRQKEKR [C21V] as the variant, how does the abundance fitness read?
A: -0.421 ± 0.092

Q: For KKRTSIEVSVKGALESHFLKDPKPSAQEITSLADSLQLEKEVVRVWFCNRRQKEKR [C21D], which abundance fitness is on record?
A: -0.062 ± 0.16

Q: Which abundance fitness does the source give for KKRTSIEVSVKGALESHFLKGPKPSAQEITSLADSLQLEKEVVRVWFCNRRQKEKR [C21G] here?
A: -0.521 ± 0.081

Q: For KKRTSIEVSVKGALESHFLKPPKPSAQEITSLADSLQLEKEVVRVWFCNRRQKEKR [C21P], which abundance fitness is on record?
A: -1.14 ± 0.33

Q: With KKRTSIEVSVKGALESHFLKLPKPSAQEITSLADSLQLEKEVVRVWFCNRRQKEKR [C21L] as the variant, how does the abundance fitness read?
A: -0.651 ± 0.094

Q: For KKRTSIEVSVKGALESHFLKWPKPSAQEITSLADSLQLEKEVVRVWFCNRRQKEKR [C21W], which abundance fitness is on record?
A: -0.437 ± 0.11

Q: For KKRTSIEVSVKGALESHFLKMPKPSAQEITSLADSLQLEKEVVRVWFCNRRQKEKR [C21M], which abundance fitness is on record?
A: -0.354 ± 0.11

Q: With KKRTSIEVSVKGALESHFLKQPKPSAQEITSLADSLQLEKEVVRVWFCNRRQKEKR [C21Q] as the variant, how does the abundance fitness read?
A: -0.01 ± 0.15

Q: For KKRTSIEVSVKGALESHFLKYPKPSAQEITSLADSLQLEKEVVRVWFCNRRQKEKR [C21Y], which abundance fitness is on record?
A: -0.506 ± 0.13

Q: With KKRTSIEVSVKGALESHFLKEPKPSAQEITSLADSLQLEKEVVRVWFCNRRQKEKR [C21E] as the variant, how does the abundance fitness read?
A: -0.072 ± 0.13

Q: Which abundance fitness does the source give for KKRTSIEVSVKGALESHFLKAPKPSAQEITSLADSLQLEKEVVRVWFCNRRQKEKR [C21A] here?
A: -0.304 ± 0.11

Q: Which abundance fitness does the source give for KKRTSIEVSVKGALESHFLKFPKPSAQEITSLADSLQLEKEVVRVWFCNRRQKEKR [C21F] here?
A: -0.351 ± 0.11

Q: Which abundance fitness does the source give for KKRTSIEVSVKGALESHFLKRPKPSAQEITSLADSLQLEKEVVRVWFCNRRQKEKR [C21R] here?
A: -0.419 ± 0.077

Q: With KKRTSIEVSVKGALESHFLKIPKPSAQEITSLADSLQLEKEVVRVWFCNRRQKEKR [C21I] as the variant, how does the abundance fitness read?
A: -0.484 ± 0.17

Q: Which abundance fitness does the source give for KKRTSIEVSVKGALESHFLKNPKPSAQEITSLADSLQLEKEVVRVWFCNRRQKEKR [C21N] here?
A: -0.168 ± 0.16

Q: For KKRTSIEVSVKGALESHFLKCEKPSAQEITSLADSLQLEKEVVRVWFCNRRQKEKR [P22E], which abundance fitness is on record?
A: -0.246 ± 0.11

Q: With KKRTSIEVSVKGALESHFLKCNKPSAQEITSLADSLQLEKEVVRVWFCNRRQKEKR [P22N] as the variant, how does the abundance fitness read?
A: -0.337 ± 0.15

Q: With KKRTSIEVSVKGALESHFLKCSKPSAQEITSLADSLQLEKEVVRVWFCNRRQKEKR [P22S] as the variant, how does the abundance fitness read?
A: -0.253 ± 0.1

Q: With KKRTSIEVSVKGALESHFLKCTKPSAQEITSLADSLQLEKEVVRVWFCNRRQKEKR [P22T] as the variant, how does the abundance fitness read?
A: -0.313 ± 0.1

Q: With KKRTSIEVSVKGALESHFLKCFKPSAQEITSLADSLQLEKEVVRVWFCNRRQKEKR [P22F] as the variant, how does the abundance fitness read?
A: -0.996 ± 0.37

Q: With KKRTSIEVSVKGALESHFLKCRKPSAQEITSLADSLQLEKEVVRVWFCNRRQKEKR [P22R] as the variant, how does the abundance fitness read?
A: -0.367 ± 0.08

Q: For KKRTSIEVSVKGALESHFLKCDKPSAQEITSLADSLQLEKEVVRVWFCNRRQKEKR [P22D], which abundance fitness is on record?
A: -0.122 ± 0.12

Q: For KKRTSIEVSVKGALESHFLKCVKPSAQEITSLADSLQLEKEVVRVWFCNRRQKEKR [P22V], which abundance fitness is on record?
A: -0.713 ± 0.082

Q: For KKRTSIEVSVKGALESHFLKCQKPSAQEITSLADSLQLEKEVVRVWFCNRRQKEKR [P22Q], which abundance fitness is on record?
A: 0.137 ± 0.13

Q: With KKRTSIEVSVKGALESHFLKCLKPSAQEITSLADSLQLEKEVVRVWFCNRRQKEKR [P22L] as the variant, how does the abundance fitness read?
A: -0.919 ± 0.11

Q: Which abundance fitness does the source give for KKRTSIEVSVKGALESHFLKCCKPSAQEITSLADSLQLEKEVVRVWFCNRRQKEKR [P22C] here?
A: -0.227 ± 0.15

Q: Which abundance fitness does the source give for KKRTSIEVSVKGALESHFLKCAKPSAQEITSLADSLQLEKEVVRVWFCNRRQKEKR [P22A] here?
A: -0.044 ± 0.088

Q: Which abundance fitness does the source give for KKRTSIEVSVKGALESHFLKCKKPSAQEITSLADSLQLEKEVVRVWFCNRRQKEKR [P22K] here?
A: -0.348 ± 0.13

Q: Which abundance fitness does the source give for KKRTSIEVSVKGALESHFLKCYKPSAQEITSLADSLQLEKEVVRVWFCNRRQKEKR [P22Y] here?
A: -0.718 ± 0.16

Q: With KKRTSIEVSVKGALESHFLKCHKPSAQEITSLADSLQLEKEVVRVWFCNRRQKEKR [P22H] as the variant, how does the abundance fitness read?
A: -0.189 ± 0.17

Q: Which abundance fitness does the source give for KKRTSIEVSVKGALESHFLKCIKPSAQEITSLADSLQLEKEVVRVWFCNRRQKEKR [P22I] here?
A: -0.704 ± 0.17
